This assay concerns the target Flag-EGFR purified from 293T cells (UniProt P00533 25-1210). Kind of assay: co-IP.

This is an account of results in article PMC7047192 (EBioMedicine, 2020).

B1: His-CDC34 (enzyme)
chain: MARPLVPSSQKALLLELKGLQEEPVEGFRVTLVDEGDLYNWEVAIFGPPNTYYEGGYFKARLKFPIDYPYSPPAFRFLTKMWHPNIYETGDVCISILHPPVDDPQSGELPSERWNPTQNVRTILLSVISLLNEPNTFSPANVDASVMYRKWKESKGKDREYTDIIRKQVLGTKVDAERDGVKVPTTLAEYCVKTKAPAPDEGSDLFYDDYYEDGEVEEEADSCFGDDEDDSGTEES
As to B1, the binding result is recorded as “binds”.
